Patent US20220119492A1 (MEDIKINE, published 2022)
Bridge positions count the residues as written; N and C are the ends. Ends that are not written are not given here.

Columns and labels:
[1] = target: T1, human IL-2Rβ (CD122 protein, Fc Tag) (27-239) (human, UniProt P14784 27-239); assay: competition ELISA, peptide tracer
T1 construct: range 27-239; Bought protein; also called hu-IL-2Rβ subunit; IL-2Rβ subunit; not shown: Fc tag of the bought protein
T1 sequence (looked up): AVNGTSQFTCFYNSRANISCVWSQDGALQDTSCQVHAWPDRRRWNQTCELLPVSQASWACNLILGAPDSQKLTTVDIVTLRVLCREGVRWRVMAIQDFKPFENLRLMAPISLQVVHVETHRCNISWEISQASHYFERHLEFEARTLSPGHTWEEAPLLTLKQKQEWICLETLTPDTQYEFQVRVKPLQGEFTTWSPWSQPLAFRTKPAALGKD
Description: (§1) Binding of Fc fusions to IL-2Rβ and IL-2Rγc were measured using a competition binding ELISA with biotinylated peptide/NeutrAvidin-HRP tracer. ELISA plate was prepared as described in Example 27.
(§2) The plate was washed 4 times with PT (1×PBS, 0.05% Tween® 20) buffer. Fifty (50) μL of IL-2R ligands serially diluted in PBT was added to appropriate wells then incubated at 4° C. for 1 hr.
(§3) At the appropriate time, the precomplexed bn-peptide/NA-HRP tracer was diluted to 2-fold its predetermined binding EC80 (typically 30 to 10 nM) without washing. fifty (50) μL of bn-peptide/NA-HRP tracer was added to each well and incubated at 4° C. for 45 mins.

[2] = target: T2, cynomolgus monkey IL-2Rβ subunit (cynomolgus monkey); assay: competition ELISA, peptide tracer
T2 construct: Bought protein; also called cyno-IL-2Rβ subunit
Description: as §1, §2, §3

[3] = target: T1, human IL-2Rβ (CD122 protein, Fc Tag) …; assay: phage ELISA competition
Procedure, shortened: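 Competitive binding ELISA in which a phage tracer competes with test ligands for human IL-2Rβ-Fc; IC50 is derived from the absorbance signal across the ligand dilution series. Without washing, 50 μL of phage tracer was added for 45 min at 4° C. Bound phage was detected with TMB for 1 to 15 min at 25° C, followed by stop solution and absorbance at 450 nm.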

T2 sequence (Q38J85 whole entry): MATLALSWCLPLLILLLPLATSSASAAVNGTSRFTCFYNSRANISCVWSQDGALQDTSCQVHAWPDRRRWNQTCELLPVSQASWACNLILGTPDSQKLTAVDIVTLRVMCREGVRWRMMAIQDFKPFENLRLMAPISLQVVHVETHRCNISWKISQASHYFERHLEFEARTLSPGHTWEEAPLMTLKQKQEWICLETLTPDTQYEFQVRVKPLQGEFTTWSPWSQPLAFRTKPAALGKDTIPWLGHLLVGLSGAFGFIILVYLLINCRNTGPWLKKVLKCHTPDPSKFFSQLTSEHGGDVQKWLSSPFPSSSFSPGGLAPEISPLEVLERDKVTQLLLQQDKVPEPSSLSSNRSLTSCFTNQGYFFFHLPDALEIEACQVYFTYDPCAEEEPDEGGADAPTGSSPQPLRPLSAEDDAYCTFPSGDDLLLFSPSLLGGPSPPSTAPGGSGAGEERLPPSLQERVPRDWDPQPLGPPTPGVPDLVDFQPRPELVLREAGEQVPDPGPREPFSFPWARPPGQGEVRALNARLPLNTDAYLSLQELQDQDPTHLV

| Binder | IC50 [1] [µM] | IC50 [2] [µM] | IC50 [3] [µM] | binding result [1] |
| --- | --- | --- | --- | --- |
| GGELLVDCFKVKVGELCDLFFG [SEQ ID NO 3114] | < 100 | < 100 | – | – |
| VHDCFIAQVGDLCDLF [SEQ ID NO 2887] | – | – | < 100 | – |
| WYPCWGELCDLD [SEQ ID NO 2891] | – | – | < 100 | – |
| EFWGWQCWQEPLGWSCDLEWMD [SEQ ID NO 2883] | – | – | < 100 | – |
| LVDCFKVKVGELCDLF (disulfide 4-13 (inferred)) [SEQ ID NO 2886] | – | – | < 100 | – |
| WPCWLGELCDLD [SEQ ID NO 2890] | – | – | < 100 | – |
| GGELLVDCFKVKVGELCDLFF [SEQ ID NO 3107] | < 100 | < 100 | – | – |
| DGSWYTCWFTQLGEWCEQDDAK [SEQ ID NO 2882] | – | – | < 100 | – |
| GGRYVHDCFIAQVGDLCDLFLHGG [SEQ ID NO 3147] | < 100 | < 100 | – | – |
| WPCWAALGELCDLD [SEQ ID NO 2888] | – | – | < 100 | – |
| WPCWALGELCDLD [SEQ ID NO 2889] | – | – | < 100 | – |
| GGELLVDCFKVKVGELCDLF [SEQ ID NO 3122] | < 100 | < 100 | – | – |

Further lines, results first:

| IC50 [1] [µM] | IC50 [2] [µM] | IC50 [3] [µM] | binding result [1] | Binder |
| --- | --- | --- | --- | --- |
| < 100 | < 100 | – | – | GGRYVHDCFIAQVGDLCDLFLH [SEQ ID NO 3137] |
| < 100 | < 100 | – | – | LVDCFKVKVGELCDLFFGGG [SEQ ID NO 3126] |
| < 100 | < 100 | – | – | GGELLVDCFRVRVGELCDLFFGGG [SEQ ID NO 3128] |
| < 100 | < 100 | – | – | ELLVDCFKVKVGELCDLFFGGG [SEQ ID NO 3124] |
| < 100 | < 100 | – | – | VDCFKVKVGELCDLFFGGG [SEQ ID NO 3127] |
| – | – | – | binds | GGWYPCWMAQLGELCDLDGGGGSGGVVCQDWEGVELCWQGG [IL-2Rβγc ligand having SEQ ID NO: 1263] |
| < 100 | < 100 | – | – | GGRYVHDCFIAAVGDLCDLFLHGG [SEQ ID NO 3172] |
| < 100 | < 100 | – | – | GGRYVHDCFAAQVGDLCDLFLHGG [SEQ ID NO 3170] |
| < 100 | < 100 | – | – | GGRYVHDCFIAQAGDLCDLFLHGG [SEQ ID NO 3173] |
| < 100 | < 100 | – | – | GGRYVHDCFIAQVGDACDLFLHGG [SEQ ID NO 3176] |
| < 100 | < 100 | – | – | GGRYVHDCFIAQVADLCDLFLHGG [SEQ ID NO 3174] |
| < 100 | < 100 | – | – | GGRYVHDCFIGQVGDLCDLFLHGG [SEQ ID NO 3171] |
| < 100 | < 100 | – | – | LLVDCFKVKVGELCDLFFGGG [SEQ ID NO 3125] |
